{
  "source": "the DeepSol protein solubility set",
  "test": "soluble on expression in E. coli; label from the status in PepcDB or PDB records",
  "data": [
    {"sequence": "MALVLTFLGKGGVGRTTVAIAAAKKLAQAGQRVLVLGQDPSLAWQWGITLSETAQGVEANVDGLLLSSTHLLERGWEKLKEVEAQYLRSPALKNIYGEELGVLPGMDEVLVLNALREYELSGRYDVLIYDGPGNLSTLRMLGIPEIASWYWRRFQKVLADSEVVQTLSPFVQPVASAVLSVNWSPDQMLNHPDGPQNLLQQGKAAIADPNRFAAYLVTSTDSLAQKAAQSYWGGAQQVGVTVKGVIQTPLGNGSLDANLFDPLLIAALPSYNQGNWQPLMDALPNPQAMGSAPRPLEIDVNARQVKVFLPGFDKRQVKLTQSGPELTIEAGDQRRNIDLPGNLRGKGVTGAKFQGGYLIVSFLEHHHHHH", "values": [
      {"measurement": "soluble on expression in E. coli", "result": "not soluble"}
    ]},
    {"sequence": "MSAQINNIRPEFDREIVDIVDYVMNYEISSKVAYDTAHYCLLDTLGCGLEALEYPACKKLLGPIVPGTVVPNGVRVPGTQFQLDPVQAAFNIGAMIRWLDFNDTWLAAEWGHPSDNLGGILATADWLSRNAVASGKAPLTMKQVLTAMIKAHEIQGCIALENSFNRVGLDHVLLVKVASTAVVAEMLGLTREEILNAVSLAWVDGQSLRTYRHAPNTGTRKSWAAGDATSRAVRLALMAKTGEMGYPSALTAPVWGFYDVSFKGESFRFQRPYGSYVMENVLFKISFPAEFHSQTAVEAAMTLYEQMQAAGKTAADIEKVTIRTHEACIRIIDKKGPLNNPADRDHCIQYMVAIPLLFGRLTAADYEDNVAQDKRIDALREKINCFEDPAFTADYHDPEKRAIANAITLEFTDGTRFEEVVVEYPIGHARRRQDGIPKLVDKFKINLARQFPTRQQQRILEVSLDRARLEQMPVNEYLDLYVI", "values": [
      {"measurement": "soluble on expression in E. coli", "result": "soluble"}
    ]},
    {"sequence": "KMPSPYSHKEFVKEIAPTAQKLSKIYGVRSSIIIGQAALDSHFGSTLLASKYHNLFSIEASPGQGAVRLKSHEYKNGRWQEVTNRYLVYESWKESLYDYMAILHGNKIWDKALYTTMMTSSGYKTVARALQAAGFNSDPNYADKLIAVIEENNL", "values": [
      {"measurement": "soluble on expression in E. coli", "result": "soluble"}
    ]},
    {"sequence": "MACLSPSQLQKFQQDGFLVLEGFLSAEECVAMQQRIGEIVAEMDVPLHCRTEFSTQEEEQLRAQGSTDYFLSSGDKIRFFFEKGVFDEKGNFLVPPEKSINKIGHALHAHDPVFKSITHSFKVQTLARSLGLQMPVVVQSMYIFKQPHFGGEVSPHQDASFLYTEPLGRVLGVWIAVEDATLENGCLWFIPGSHTSGVSRRMVRAPVGSAPGTSFLGSEPARDNSLFVPTPVQRGALVLIHGEVVHKSKQNLSDRSRQAYTFHLMEASGTTWSPENWLQPTAELPFPQLYT", "values": [
      {"measurement": "soluble on expression in E. coli", "result": "soluble"}
    ]},
    {"sequence": "MKKDTDCTEILVGKTASMDGSTIVARNEDGYGPINPIKFIVHEAHDQTNASYTSVTTGVTVPLPDHAYRYTATPQADQSDGQYEEAGINELNVGMSATETTATNARVLGYDPLVHDGVDEEAMVTLVLPYIKSAKEGVQRLGALIEKYGTGESNSIAFNDHDDIWLFETAGGHHWGAVRMPEDTYAIVPNQTVVQEMDLNDTDNFLGASDLVDFVEKYHLNPTPGHFNFREIFGTQSEADAYYNTPRTWYGQKLFNPEIEQNPTDQNMPLFRQPSKKLAIEDVQFFLSSHYNGTPYDPFGTFASGNAREQTRYRSIAMDRNQCSSILQIRNDVPAKQAAIQWIALGFFAYAPYVPFFTNINDTPIDYRNTTSTVSVDNVYWLSKTLSVLIEPHWHEFAETVNAYRDECQSYARGRVAATDAAIAGNPTDFLTKANSETAAEISNRTHALFDTLVKQGLLLSKTTWEKGQNLLEHHHHHH", "values": [
      {"measurement": "soluble on expression in E. coli", "result": "not soluble"}
    ]},
    {"sequence": "MILVTGSSGQIGTELVPYLAEKYGKKNVIASDIVQRDTGGIKFITLDVSNRDEIDRAVEKYSIDAIFHLAGILSAKGEKDPALAYKVNMNGTYNILEAAKQHRVEKVVIPSTIGVFGPETPKNKVPSITITRPRTMYGVTKIAAELLGQYYYEKFGLDVRSLRYPGIISYKAEPTAGTTDYAVEIFYYAVKREKYKCYLAPNRALPMMYMPDALKALVDLYEADRDKLVLRNGYNVTAYTFTPSELYSKIKERIPEFEIEYKEDFRDKIAATWPESLDSSEASNEWGFSIEYDLDRTIDDMIDHISEKLGIEGKHAL", "values": [
      {"measurement": "soluble on expression in E. coli", "result": "soluble"}
    ]},
    {"sequence": "MKGYFETNRIQHIIVDEAQNFHTEDGNWCEKAKGITQGGKACPRMFWIFLDYFQTSHLKESGLPDFELQYPKEELTQVVRNGDKIAEFLQQELGKIRDNPPCSIPRASLNIVHEFKWSQSISGTLKIKYLTSEKMVSYVANKCDVFLSKGYSPQDIAVLFSTDREKKAYEHMFLREMRKKRRASQMNDTSVCHSNMFDRIRRFSGLERSIVFGINPIATEQPISHNLLICLASRAMKYLYILYALTPEGQSSTVAC", "values": [
      {"measurement": "soluble on expression in E. coli", "result": "not soluble"}
    ]},
    {"sequence": "MNIMSESIPQFYKRIQRCDPQLGTTYSKENPYFNVLSRQCNFGTVQFSYRDFYKVTLIIGVGKLYYADKWILVNRPAMLFSNPLVPYAWESISEEQKGMFCIFNEQFVQSEEKNGSLANTPLFKVTGDKVFFLNDAQVAKVMDIYTQMQEENQSDYANKHDVLRCYLHLLIHTALKMQESNKYESHPNASQRITELFIELLDRQFPVDYPHSVLSLRTPADYANRLSIHVNHLNKVVKDTTGKTTSTMIAERIIKECTQYLLHSNFSISEIAYSLGFENMAYFSKFYRKHTGKSPSEIREQQLFDLCK", "values": [
      {"measurement": "soluble on expression in E. coli", "result": "not soluble"}
    ]},
    {"sequence": "MQALKTKSNIGEMFNIQEKENGEIAISGRELHQALEVSTRYDKWFERMTEYGFENGIDFISQVEKVHGQKRARTYEQVNHILTLDTAKEIAMIQRSEPGKRARQYFIQVEKAWNSPEMIMQRALKIANNTINQLETKIERDKPKIVFADAVATTKTSILVGELAKIIKQNGINIGQRRLFEWLRQNGFLIKRKGVDYNMPTQYSMERELFEIKETSITHSDGHTSISKTPKVTGKGQQYFVNKFLGEKQTS", "values": [
      {"measurement": "soluble on expression in E. coli", "result": "not soluble"}
    ]},
    {"sequence": "VEYSKDRLEMEIVMAAERLDITEECIRFSSHNKFFIEELNNSSSGSGRKLNFLLQEQLREANTIASKSQNADISQKVVHIKEELEKVREQLQNIE", "values": [
      {"measurement": "soluble on expression in E. coli", "result": "not soluble"}
    ]},
    {"sequence": "ATGDTAATAAPAKAEKTAGSVLRDAKRVIIVPGYGMALAQAQHQVRQLADKLTANGTEVRYAIHPVAGRMPGHMNVLLCEADVPYDQLFEMDAINGDFAQTDAVVVIGANDVMNPAARNAEGTPIYGMPVLNVDDAPEVIICNFDLKPGYAGVDNPLYTRATGVFLKLGDAKESLAEIMKEMDIA", "values": [
      {"measurement": "soluble on expression in E. coli", "result": "not soluble"}
    ]},
    {"sequence": "MTNVLYQHGTLGTLMAGLLEGTATINELLEHGNLGIATLTGSDGEVIFLDGKAYHANEHKEFIELKGDEKVPYASITNFKASKTFPLQQLSQDDVFAQIKNEMLSENLFSAVKIYGTFKHMHVRMMPAQQPPYTRLIDSARRQPEEKRQDIRGAIVGFFTPELFHGVGSAGFHIHFADDERAYGGHVLDFEVDDVVVEIQNFETFQQHFPVNNETFVKAKIDYKDVAEEIREAE", "values": [
      {"measurement": "soluble on expression in E. coli", "result": "soluble"}
    ]},
    {"sequence": "MGHHHHHHSHMGTNDEDELSLGLPTELKRKKEQLDGGHRPSKETQSAAGLTLPLNSDQTFHLMSNLAGDVITAAVTAAIKDQLEGVQQALSQAAPIPEEDTDTEEGDDFELLDQSELDQIESELGLTQDQEAEAQQNKKSSGFLSNLLGGH", "values": [
      {"measurement": "soluble on expression in E. coli", "result": "soluble"}
    ]},
    {"sequence": "VNSVTISVEGMTCNSCVWTIEQQIGKVNGVHHIKVSLEEKNATIIYDPKLQTPKTLQEAIDDMGFDAVIHNIEGR", "values": [
      {"measurement": "soluble on expression in E. coli", "result": "soluble"}
    ]},
    {"sequence": "MSLSVVERIFNHSESRPDCIAVYENDRTISYENLASDIKKTAAKLVSLGVTSEDAVLVRSNNSYSFILLYFSIHYVGAKFVNVAPDSDVSYVSFIEDKVNPKLFIEKSQDFIRNIDSYTFDNIFPPQARGIADIMFTSGTTGEPKGVLLSHKSLVLATEHIISHVKNTNEDVELLLMPLSHSFAMARMRTSLFAGGAIVVGCSFKQLKSVFKAIEFYKVTGLGLVPSAWSYITLMTKDLIRKYSEQLNFIEFGSAHFPFEDKKQVAEWFPNTNVVMHYGLTEVSRATFIDFHNDDINAVGHRYRGADFKIIDNKGAEVIEGEEGEIVFKAPWMLDGYFENSQLTSDCFVEGYFKTGDLGRVVGDYLFLTGRLKEIINVGGKKVSPDQVEKVLSEALGVQECACAALSDANMGEVVQAYIVVKSGWDCENVISNIKETINGQLPMHMRPKKYSIVSALPKTVSGKVQRYKLSSEGHHHHHH", "values": [
      {"measurement": "soluble on expression in E. coli", "result": "soluble"}
    ]}
  ]
}
